Measured values as given in PMC8510540.

Tests used:
[1] = biological target: HIV-1_(YU-2) gp140 trimer; experiment: BLI (kinetic KD, value in parentheses)
[2] = biological target: soluble human FcγRIIA, biotinylated, tetramerized with streptavidin-PE (UniProt P12318); experiment: multiplex assay: antigen-conjugated beads stained with tetramerized receptor; conditions: highest antibody concentration point, log10 Ab (nM) about 1.6 (estimated); parent: est. 4.1; read off a plot
[3] = biological target: soluble human FcγRIIB, biotinylated, tetramerized with streptavidin-PE (UniProt P31994); experiment: as above; conditions: highest antibody concentration point, log10 Ab (nM) about 1.6 (estimated); parent: est. 3.4; read off a plot
Chain of soluble human FcγRIIB, biotinylated, tetramerized with streptavidin-PE (P31994 43-217): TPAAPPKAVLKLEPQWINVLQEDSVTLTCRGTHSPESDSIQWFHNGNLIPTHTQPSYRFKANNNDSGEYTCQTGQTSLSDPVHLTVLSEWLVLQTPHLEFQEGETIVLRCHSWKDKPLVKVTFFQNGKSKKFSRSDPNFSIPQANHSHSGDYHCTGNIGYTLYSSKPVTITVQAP

[4] = biological target: soluble human FcγRIIIB, biotinylated, tetramerized with streptavidin-PE (UniProt O75015); experiment: as above; conditions: highest antibody concentration point, log10 Ab (nM) about 1.6 (estimated); parent: est. 3.3; read off a plot
Chain of soluble human FcγRIIIB, biotinylated, tetramerized with streptavidin-PE (O75015 17-200): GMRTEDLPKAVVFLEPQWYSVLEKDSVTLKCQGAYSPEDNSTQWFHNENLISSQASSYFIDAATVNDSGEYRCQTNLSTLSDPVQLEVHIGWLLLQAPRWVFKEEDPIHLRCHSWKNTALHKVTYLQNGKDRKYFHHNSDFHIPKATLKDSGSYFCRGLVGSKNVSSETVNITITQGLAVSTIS

[5] = biological target: soluble human FcγRIIIA, biotinylated, tetramerized with streptavidin-PE (UniProt P08637); experiment: as above; conditions: highest antibody concentration point, log10 Ab (nM) about 1.6 (estimated); parent: est. 4.3; read off a plot
Chain of soluble human FcγRIIIA, biotinylated, tetramerized with streptavidin-PE (P08637 17-208): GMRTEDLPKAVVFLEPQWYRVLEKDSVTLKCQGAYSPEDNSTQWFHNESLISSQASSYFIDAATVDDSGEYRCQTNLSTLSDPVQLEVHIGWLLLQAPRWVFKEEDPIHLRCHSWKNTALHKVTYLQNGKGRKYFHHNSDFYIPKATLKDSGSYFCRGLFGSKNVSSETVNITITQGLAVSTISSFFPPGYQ

[6] = biological target: HIV-1_(YU-2) gp140 trimer; experiment: BLI (equilibrium KD)

Chain of soluble human FcγRIIA, biotinylated, tetramerized with streptavidin-PE (P12318 34-217): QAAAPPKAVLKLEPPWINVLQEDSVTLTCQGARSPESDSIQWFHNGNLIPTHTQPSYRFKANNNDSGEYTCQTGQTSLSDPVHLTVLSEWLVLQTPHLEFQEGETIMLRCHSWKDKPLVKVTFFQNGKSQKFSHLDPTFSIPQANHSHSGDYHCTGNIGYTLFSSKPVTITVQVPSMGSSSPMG

Substance	Kd [1]	response [2]	response [3]	response [4]	response [5]	Kd [6]
IgG1 b12 (unmodified Fc) (from UniProt P01857) L234A; L235A	2.06 nM	2 log10 MFI	2 log10 MFI	2 log10 MFI	3.4 log10 MFI	2.04 nM
IgG1 b12 (unmodified Fc) (from UniProt P01857) K322A	2.56 nM	–	–	–	–	2.95 nM
IgG1 b12 (unmodified Fc) (from UniProt P01857) E430G	2.26 nM	4 log10 MFI	–	3.1 log10 MFI	–	0.9 nM
IgG1 b12 (unmodified Fc) (from UniProt P01857) G236A; S267E; H268F; S324T; I332E	2.78 nM	4.3 log10 MFI	4.3 log10 MFI	3.2 log10 MFI	–	1.93 nM
